# Patent publication EP1336618A1
# Where “and” joins values, the source holds several entries; their conditions need not be identical. Equal entries are not always repeated.
# Target: human C3b (human) (UniProt P01024)
# Assay: cell-based or functional assay
# Chain of UniProt P01024 (P01024 749-1663 limits assumed, chain 1 of 2): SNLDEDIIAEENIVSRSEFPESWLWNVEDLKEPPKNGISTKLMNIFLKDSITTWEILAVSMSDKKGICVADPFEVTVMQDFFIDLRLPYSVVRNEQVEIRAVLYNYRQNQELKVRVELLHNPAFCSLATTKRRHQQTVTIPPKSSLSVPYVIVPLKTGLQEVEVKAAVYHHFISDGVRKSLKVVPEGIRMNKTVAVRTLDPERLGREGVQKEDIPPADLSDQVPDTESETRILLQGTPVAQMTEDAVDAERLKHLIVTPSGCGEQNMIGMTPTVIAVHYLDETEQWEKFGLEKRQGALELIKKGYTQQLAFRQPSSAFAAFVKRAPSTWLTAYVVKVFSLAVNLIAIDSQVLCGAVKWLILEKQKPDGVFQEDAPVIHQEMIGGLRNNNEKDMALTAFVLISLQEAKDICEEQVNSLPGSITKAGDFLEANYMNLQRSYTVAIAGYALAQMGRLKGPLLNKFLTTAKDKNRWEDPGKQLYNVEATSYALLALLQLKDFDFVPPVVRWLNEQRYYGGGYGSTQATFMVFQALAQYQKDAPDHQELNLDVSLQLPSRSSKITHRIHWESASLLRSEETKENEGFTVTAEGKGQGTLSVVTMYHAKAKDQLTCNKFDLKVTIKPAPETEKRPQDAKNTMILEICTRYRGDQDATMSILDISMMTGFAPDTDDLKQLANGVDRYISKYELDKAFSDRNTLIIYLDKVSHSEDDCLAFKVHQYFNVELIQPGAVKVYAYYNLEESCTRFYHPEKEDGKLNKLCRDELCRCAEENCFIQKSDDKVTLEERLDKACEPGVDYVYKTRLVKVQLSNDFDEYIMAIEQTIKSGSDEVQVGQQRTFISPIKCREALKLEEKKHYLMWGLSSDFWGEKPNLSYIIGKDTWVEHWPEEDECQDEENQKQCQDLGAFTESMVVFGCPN
# Chain of UniProt P01024 (P01024 23-667 limits assumed, chain 2 of 2): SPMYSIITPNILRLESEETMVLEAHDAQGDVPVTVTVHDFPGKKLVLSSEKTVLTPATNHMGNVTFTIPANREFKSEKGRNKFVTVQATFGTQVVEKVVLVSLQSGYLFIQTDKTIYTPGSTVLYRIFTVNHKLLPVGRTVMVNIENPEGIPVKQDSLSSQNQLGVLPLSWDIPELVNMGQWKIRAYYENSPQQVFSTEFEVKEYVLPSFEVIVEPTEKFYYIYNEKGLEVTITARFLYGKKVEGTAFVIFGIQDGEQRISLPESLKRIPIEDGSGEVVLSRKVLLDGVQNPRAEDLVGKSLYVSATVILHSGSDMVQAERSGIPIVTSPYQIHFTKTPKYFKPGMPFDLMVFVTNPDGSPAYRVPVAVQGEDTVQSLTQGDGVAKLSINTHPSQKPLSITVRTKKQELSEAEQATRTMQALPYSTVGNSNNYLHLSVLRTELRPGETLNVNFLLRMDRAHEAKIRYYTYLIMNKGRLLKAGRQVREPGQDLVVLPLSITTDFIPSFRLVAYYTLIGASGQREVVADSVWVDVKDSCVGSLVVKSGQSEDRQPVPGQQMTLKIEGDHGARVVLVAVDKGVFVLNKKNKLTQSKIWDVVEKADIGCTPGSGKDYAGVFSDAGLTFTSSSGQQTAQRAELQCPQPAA
"half-maximum cleavage activity of hC3b (cofactor dilution, start 0.7 µg in 5 µl) (fold dilution (1:x))",difference in half-maximum activity in the cleavage of human C3b against human FHL-1 (dilution step),Substance
16 and 8,–,"human FHL-1 (factor H like protein 1), recombinant (from UniProt P08603 19-449)"
8 and 16,< 1,"recombinant fragment pFH SCR1-4 (porcine complement regulator factor H, short consensus repeats 1-4)"
